# Source: patent US20040265295
# Legend:
# [1] = tested on: His-PIPKIγ661 C-terminus (439-661) Tyr644 to Phe mutant
# [2] = tested on: His-PIPKIγ661 C-terminus (439-661) Tyr644/649 to Phe mutant
# [3] = tested on: His-PIPKIγ661 C-terminus (439-661) Tyr649 to Phe mutant
# [4] = tested on: His-PIPKIγ661 C-terminus, wild-type (439-661)
# His-PIPKIγ661 C-terminus, wild-type (439-661), sequence (chain, as listed by the source): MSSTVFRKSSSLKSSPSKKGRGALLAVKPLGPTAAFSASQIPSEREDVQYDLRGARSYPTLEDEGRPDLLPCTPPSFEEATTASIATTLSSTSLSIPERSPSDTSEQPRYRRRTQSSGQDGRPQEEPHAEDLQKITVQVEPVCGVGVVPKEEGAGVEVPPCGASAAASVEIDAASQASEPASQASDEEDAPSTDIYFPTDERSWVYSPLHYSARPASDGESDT
# His-PIPKIγ661 C-terminus (439-661) Tyr649 to Phe mutant, sequence (chain, as listed by the source mutant): as the sequence (chain, as listed by the source) above, with Y211F counted along it
# His-PIPKIγ661 C-terminus (439-661) Tyr644/649 to Phe mutant, sequence (chain, as listed by the source mutant): as the sequence (chain, as listed by the source) above, with Y206F, Y211F counted along it
# His-PIPKIγ661 C-terminus (439-661) Tyr644 to Phe mutant, sequence (chain, as listed by the source mutant): as the sequence (chain, as listed by the source) above, with Y206F counted along it
substance,measurement,setting,value
c-SrcTyr527Phe,"in vitro kinase assay, phosphorylation of the recombinant substrate",[1],not efficiently phosphorylated by c-Src in vitro compared with wild-type
same,"in vitro kinase assay, phosphorylation of the recombinant substrate",[2],not efficiently phosphorylated by c-Src in vitro compared with wild-type
same,"in vitro kinase assay, phosphorylation of the recombinant substrate",[3],PIPKIγTyr^649->Phe is efficiently phosphorylated by c-Src
same,"in vitro kinase assay, phosphorylation of the recombinant substrate",[4],c-Src directly phosphorylated recombinant PIPKIγ661 tail
